Laboratory results taken from article PMC6414702, “AtrR Is an Essential Determinant of Azole Resistance in Aspergillus fumigatus”.

Experiments:
[1] = biological target: T1, AtrR DNA-binding domain (AtrR-DBD) (Aspergillus fumigatus) (UniProt Q4WI89); assay: EMSA; conditions: Biotin EMSA: 25 mM Tris-HCl pH 7.5, 80 mM NaCl, 35 mM KCl, 5 mM MgCl2, 10% glycerol, 1 ug poly(dI-dC), 20 ul, 0.1 ug AtrR-DBD, 20 pmol probe, room temperature …
T1 sequence: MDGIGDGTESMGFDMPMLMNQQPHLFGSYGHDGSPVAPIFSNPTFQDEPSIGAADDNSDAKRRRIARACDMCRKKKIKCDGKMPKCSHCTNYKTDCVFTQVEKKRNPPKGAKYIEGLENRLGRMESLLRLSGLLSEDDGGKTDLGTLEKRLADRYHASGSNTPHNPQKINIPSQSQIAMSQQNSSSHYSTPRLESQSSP

[2] = biological target: T2, AtrR DNA-binding domain (AtrR-DBD) (Aspergillus fumigatus, UniProt Q4WI89 1-199); assay: competition; 10-fold excess over biotinylated 34-bp probe (12-fold in Methods); Biotin EMSA: 25 mM Tris-HCl pH 7.5, 80 mM NaCl, 35 mM KCl, 5 mM MgCl2, 10% glycerol, 1 ug poly(dI-dC), 20 ul, 0.1 ug AtrR-DBD, 20 pmol probe, room temperature 30 min; 32P EMSA and footprinting as in cited reference 40; conditions: protein: recombinant; chain copies: 2; blunt
T2 sequence: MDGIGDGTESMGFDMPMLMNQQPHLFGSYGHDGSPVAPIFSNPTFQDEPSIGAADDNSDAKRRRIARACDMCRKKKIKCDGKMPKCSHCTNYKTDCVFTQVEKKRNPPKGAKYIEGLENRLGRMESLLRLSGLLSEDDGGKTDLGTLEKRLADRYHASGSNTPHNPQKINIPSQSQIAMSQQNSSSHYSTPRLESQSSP

[3] = biological target: T2, AtrR DNA-binding domain (AtrR-DBD); assay: EMSA; 5 mM Mg2+, poly(dI-dC); Biotin EMSA: 25 mM Tris-HCl pH 7.5, 80 mM NaCl, 35 mM KCl, 5 mM MgCl2, 10% glycerol, 1 ug poly(dI-dC), 20 ul, 0.1 ug AtrR-DBD, 20 pmol probe, room temperature 30 min; 32P EMSA and footprinting as in cited reference 40; conditions: protein: recombinant; chain copies: 2; label: 5' biotin on both strands; blunt

Molecule | binding result [2] | other results
GAAAAAACTCATGAGTGAATAATCGCAGCACCACTCCAGAGTTGTCTAGAATCACGCGGTCCGGATGTGTGCTGAGCCGAATGAAAGTTGCCTAATTACTAAGGTGTAGTTCCAGCATACCATACACCCTAACTCATACTACGGTAGGTAGATCTACTTACCTATGAACCTATATTGGTAGGTAGGTGAATATAAAATACAGCATG (double strand) [cyp51A promoter PCR probe] | – | binding [1]: binds
SphI mutant competitor (dsDNA) DNA 1: GTTGTCTCAGAATCACGCGGGCATGCTGTGTGCTGAGCCGAAT DNA 2: ATTCGGCTCAGCACACAGCATGCCCGCGTGATTCTGAGACAAC | no binding | –
DM competitor (dsDNA) DNA 1: GAATCACGCGGTATTGATGTGTGCTGAGTATAAT DNA 2: ATTATACTCAGCACACATCAATACCGCGTGATTC | no binding | –
EcoRI mutant competitor (dsDNA) DNA 1: GTTGTCTCAGAATCACGCGGTCCGGATGTGGAATTCGCCGAAT DNA 2: ATTCGGCGAATTCCACATCCGGACCGCGTGATTCTGAGACAAC | binds | –
cyp51A 42-bp wild-type competitor (dsDNA) DNA 1: GTTGTCTCAGAATCACGCGGTCCGGATGTGTGCTGAGCCGAAT DNA 2: ATTCGGCTCAGCACACATCCGGACCGCGTGATTCTGAGACAAC | binds | –
cyp51A 34-bp probe (dsDNA) DNA 1: GAATCACGCGGTCCGGATGTGTGCTGAGCCGAAT DNA 2: ATTCGGCTCAGCACACATCCGGACCGCGTGATTC | – | binding result [3]: binds
